Experiment [1] deals with T1, human FcRH5 (PRO52387; FcRH5c/IRTA2c), antigen as used in Biacore and in hybridoma screening (human, UniProt Q96RD9 16-851, limits assumed).
T1 construct: The Biacore text only says that 'various FcRHs were injected'; also called Hu antigen; FcRH5/IRTA2
T1 chain: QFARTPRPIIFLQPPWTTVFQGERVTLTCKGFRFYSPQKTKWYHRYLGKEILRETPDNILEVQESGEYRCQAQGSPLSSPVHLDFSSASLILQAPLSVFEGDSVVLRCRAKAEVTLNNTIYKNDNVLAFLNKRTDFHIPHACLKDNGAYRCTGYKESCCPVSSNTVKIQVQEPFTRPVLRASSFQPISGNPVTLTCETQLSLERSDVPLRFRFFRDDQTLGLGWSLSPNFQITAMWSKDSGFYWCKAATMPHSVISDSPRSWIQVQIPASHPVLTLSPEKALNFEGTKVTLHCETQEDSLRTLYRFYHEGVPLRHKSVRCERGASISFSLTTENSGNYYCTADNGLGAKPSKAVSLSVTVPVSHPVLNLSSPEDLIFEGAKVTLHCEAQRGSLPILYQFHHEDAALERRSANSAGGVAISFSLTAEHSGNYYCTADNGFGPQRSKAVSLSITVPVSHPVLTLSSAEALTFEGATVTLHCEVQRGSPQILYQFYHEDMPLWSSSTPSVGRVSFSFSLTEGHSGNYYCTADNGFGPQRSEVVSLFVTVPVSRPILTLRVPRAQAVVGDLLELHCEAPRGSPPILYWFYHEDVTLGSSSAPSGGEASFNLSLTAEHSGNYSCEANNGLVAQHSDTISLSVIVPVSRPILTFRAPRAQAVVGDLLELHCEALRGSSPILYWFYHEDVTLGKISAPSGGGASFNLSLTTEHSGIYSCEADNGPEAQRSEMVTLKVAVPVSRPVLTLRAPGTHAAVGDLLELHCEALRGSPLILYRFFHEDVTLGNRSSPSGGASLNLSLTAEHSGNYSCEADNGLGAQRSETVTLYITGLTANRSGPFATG
The experiment is described as follows: SPR (Biacore 2000), IgG captured on anti-murine IgG chip, FcRH injected, 1:1 Langmuir fit, 25 C. A general note: In SPR one partner is held on a chip, and binding of the other changes the refractive index at the surface.
Method: The FcRH-binding affinities of IgGs were calculated from association and dissociation rate constants measured using a Biacore 2000 surface plasmon resonance system (BIAcore, Inc.). […] Briefly, for each cycle of kinetic analysis, 5 ul of 100 nM IgG was captured on the chip, two-fold serial dilution of various FcRHs were injected at a flow rate of 20 ul/min for 150 sec. Antigen dissociation was monitored for 180 sec before regeneration. Equilibrium dissociation constants at 25° C. were calculated by fitting the data with a 1:1 Langmuir binding model. Running buffer was PBS with 0.05% Tween-20.

The target in experiment [2] is T2, cynomolgus FcRH5 on stably transfected SVT2 cells (cynomolgus monkey).
T2 construct: also called cyno FcRH5; cynoFcRH5
T2 chain: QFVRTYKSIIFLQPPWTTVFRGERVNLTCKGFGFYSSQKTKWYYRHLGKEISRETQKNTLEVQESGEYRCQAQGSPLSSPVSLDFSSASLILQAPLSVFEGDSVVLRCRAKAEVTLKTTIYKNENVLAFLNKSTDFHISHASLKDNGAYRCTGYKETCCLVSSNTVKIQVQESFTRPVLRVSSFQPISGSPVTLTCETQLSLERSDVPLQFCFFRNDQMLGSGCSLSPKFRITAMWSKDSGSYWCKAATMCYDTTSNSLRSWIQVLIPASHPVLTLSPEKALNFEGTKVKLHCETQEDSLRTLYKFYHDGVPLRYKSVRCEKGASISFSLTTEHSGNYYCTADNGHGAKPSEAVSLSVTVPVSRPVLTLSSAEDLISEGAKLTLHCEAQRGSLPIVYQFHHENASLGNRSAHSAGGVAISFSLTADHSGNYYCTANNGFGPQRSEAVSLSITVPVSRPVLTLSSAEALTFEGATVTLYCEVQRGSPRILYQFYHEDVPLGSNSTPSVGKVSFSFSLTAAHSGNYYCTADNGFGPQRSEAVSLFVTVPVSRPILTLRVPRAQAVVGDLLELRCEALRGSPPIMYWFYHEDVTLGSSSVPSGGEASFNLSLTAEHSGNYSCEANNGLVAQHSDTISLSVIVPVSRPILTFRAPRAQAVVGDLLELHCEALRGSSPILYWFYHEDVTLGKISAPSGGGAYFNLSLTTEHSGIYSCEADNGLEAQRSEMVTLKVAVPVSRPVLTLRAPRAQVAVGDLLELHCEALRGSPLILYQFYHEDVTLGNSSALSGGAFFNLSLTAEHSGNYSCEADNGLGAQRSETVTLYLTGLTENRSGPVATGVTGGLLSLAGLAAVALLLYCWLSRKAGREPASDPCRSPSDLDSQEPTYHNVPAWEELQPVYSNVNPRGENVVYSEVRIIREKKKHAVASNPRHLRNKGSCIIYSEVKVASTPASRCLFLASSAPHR
The experiment is described as follows: Scatchard, 125I-labelled antibody competed with the unlabelled same antibody on SVT2.cyFcRH5 cells, 4 C; St. Error 0.530. As for the experimental part: (§1) To further determine binding of the FcRH5 murine antibodies and IgG clones, binding of iodinated IgG variants to OPM2 cells expressing human FcRH5 and SVT2 cells expressing cynomologous FcRH5, Scatchard analysis was performed.
(§2) For Scatchard analysis, 0.5 nM I¹²⁵ labeled murine or IgG clone anti-FcRH5 was competed against unlabeled murine or IgG clone anti-FcRH5, respectively, ranging from 50 to 0.02 nM (12 step 1:2 serial dilution) in the presence of a transfected OPM2 line stably expressing human-FcRH5 and a transfected SVT2 line stably expressing cynomologous-FcRH5. After a four hour incubation at 4° C., cells were washed and cell pellet counts were read by a gamma counter (1470 WIZARD Automatic Gamma Counter; Perkin Elmer, Walthem, Mass.). All points were done in triplicate and counted for 10 minutes. The average CPM was used for Kd calculation using the New Ligand (Genentech, South San Francisco, Calif.) program.

In experiment [3] the target is T3, human FcRH5 on stably transfected cells (BJAB, OPM2) (human, UniProt Q96RD9 16-977).
T3 construct: Cells were transfected with pRK.CMV.PD.nbe.FcRH5 (untagged); also called huFcRH5; BJAB.huFcRH5
T3 chain: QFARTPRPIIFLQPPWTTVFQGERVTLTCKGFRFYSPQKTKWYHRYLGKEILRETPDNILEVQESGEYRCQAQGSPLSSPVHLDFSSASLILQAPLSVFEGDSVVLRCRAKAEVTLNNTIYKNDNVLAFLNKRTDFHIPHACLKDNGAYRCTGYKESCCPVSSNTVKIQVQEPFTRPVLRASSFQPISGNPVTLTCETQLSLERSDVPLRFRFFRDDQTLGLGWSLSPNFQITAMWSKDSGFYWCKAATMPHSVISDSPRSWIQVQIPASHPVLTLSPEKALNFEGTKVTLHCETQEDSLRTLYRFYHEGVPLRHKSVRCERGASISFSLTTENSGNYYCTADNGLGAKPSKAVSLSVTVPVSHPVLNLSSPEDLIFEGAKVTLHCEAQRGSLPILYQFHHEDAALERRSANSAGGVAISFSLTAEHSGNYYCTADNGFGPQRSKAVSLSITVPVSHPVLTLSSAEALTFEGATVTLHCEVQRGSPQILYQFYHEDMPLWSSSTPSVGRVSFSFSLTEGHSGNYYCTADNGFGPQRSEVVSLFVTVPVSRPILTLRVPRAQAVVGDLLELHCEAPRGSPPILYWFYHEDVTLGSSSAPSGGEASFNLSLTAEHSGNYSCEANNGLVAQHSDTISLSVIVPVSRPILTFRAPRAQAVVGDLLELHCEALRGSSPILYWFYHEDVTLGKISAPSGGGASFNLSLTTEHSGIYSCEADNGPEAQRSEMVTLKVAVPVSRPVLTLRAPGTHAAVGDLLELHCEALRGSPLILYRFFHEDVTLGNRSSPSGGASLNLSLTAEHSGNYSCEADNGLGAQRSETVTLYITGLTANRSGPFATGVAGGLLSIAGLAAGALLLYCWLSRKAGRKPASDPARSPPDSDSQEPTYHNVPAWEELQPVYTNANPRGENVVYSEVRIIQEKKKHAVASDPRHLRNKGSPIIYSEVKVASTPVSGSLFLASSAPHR
The experiment is described as follows: Scatchard, 125I-labelled antibody competed with the unlabelled same antibody on BJAB.huFcRH5 cells, 4 C; St. Error 0.046.

Experiment [4] addresses T2, cynomolgus FcRH5 on stably transfected …. The experiment is described as follows: Scatchard, 125I-labelled antibody competed with the unlabelled same antibody on SVT2.cyFcRH5 cells, 4 C; St. Error 0.027.
Experiment [5] deals with T3, human FcRH5 on stably transfected cells …. Briefly: Scatchard, 125I-labelled antibody competed with the unlabelled same antibody on BJAB.huFcRH5 cells, 4 C; St. Error 0.007.
The target in experiment [6] is T2, cynomolgus FcRH5 on stably transfected …. The experiment is described as follows: Scatchard, 125I-labelled antibody competed with the unlabelled same antibody on SVT2.cyFcRH5 cells, 4 C; St. Error 0.022. The procedure:
as §1, §2

For experiment [7] the target is unchanged. Briefly: Scatchard, 125I-labelled antibody competed with the unlabelled same antibody on SVT2.cyFcRH5 cells, 4 C; St. Error 0.000. As for the experimental part: as §1, §2
For experiment [8], the target named is T3, human FcRH5 on stably transfected cells …. Briefly: Scatchard, 125I-labelled antibody competed with the unlabelled same antibody on OPM2.huFcRH5 cells, 4 C; St. Error 0.050. As for the experimental part: as §1, §2
The target is the same in experiment [9]. Briefly: Scatchard, 125I-labelled antibody competed with the unlabelled same antibody on OPM2.huFcRH5 cells, 4 C; St. Error 0.150. The procedure:
as §1, §2

Experiment [10] deals with T2, cynomolgus FcRH5 on stably transfected …. The experiment is described as follows: Scatchard, 125I-labelled antibody competed with the unlabelled same antibody on SVT2.cyFcRH5 cells, 4 C; St. Error 1.340. The procedure: as §1, §2

B1: murine anti-FcRH5-7D11 monoclonal antibody (antibody, V domains shown)
VH: EVQLVESGGGLVQPGGSLKLSCAASGFTFSSYGMSWVRQTPDKRLELVATITRNGGTTYYLDSVKGRFTISRDNAKNTLYLQMSSLKSEDTAMYYCARGPIYYDYGYAMDYWGQGTTVTVSS
VL: DILLTQSPAILSVSPGERVSFSCRSSQSIGTNIHWYQQRTNGSPRLLIKFASESLSGIPSRFSGSGSGTDFTLSINSVESEDFADYYCQQSNSWPLTFGAGTKVEIK
notes: Murine IgG from a hybridoma; parent of ch7D11; also called 7D11.1.1; mu7D11
Molecule B1 showed a Kd in experiment [1] of 6 nM.

B2: murine anti-FcRH5 (10A8) monoclonal antibody (antibody, V domains shown)
VH: EVQLVESGGGLVKPGGSLKISCAASGFTFSSYAVSWVRQTPEKRLEWVATISSGGSLTFYLDSVRGRFTISRDNAKNTLYLQMSSLRSEDTAMYYCARPIPDYYALDYWGQGTSVTVSS
VL: DIVMTQSHKFMSTSVRDRVSITCKASQDVSTAVAWYQQKPGQSPKLLIYSASYRYTGVPDRFTGSGSGTDFTFTISSVQAEDLAVYYCQQHFSSPRTFGGGTKVEIKR
notes: Murine IgG from a hybridoma, detected with anti-mouse IgG1 in FACS; also called mu10A8; MA10A8
In the case of B2, the values for the Kd in experiment [2] and in experiment [3] were 2.74 nM and 0.44 nM, respectively.

B3: murine anti-FcRH5-6H1 monoclonal antibody (antibody)
chain 1: DIVMTQSHKFMSTSVRDRVSITCKASQDVSTAVAWYQQKPGQSPKLLIYSASYRYTGVPDRFTGSGSGTDFTFTISSVQAEDLAVYYCQQHFSSPRTFGGGTKVEIKR
chain 2: EVQLVESGGGLVKPGGSLKISCAASGFTFSSYAVSWVRQTPEKRLEWVATISSGGSLTFYLDSVRGRFTISRDNAKNTLYLQMSSLRSEDTAMYYCARPIPDYYALDYWGQGTSVTVSS
Turning to B3, the Kd in experiment [4] worked out at 0.38 nM; in experiment [5], 0.19 nM.

B4: chimeric anti-human FcRH5 antibody 10A8 (antibody)
heavy: not shown
light: DIVMTQSHKFMSTSVRDRVSITCKASQDVSTAVAWYQQKPGQSPKLLIYSASYRYTGVPDRFTGSGSGTDFTFTISSVQAEDLAVYYCQQHFSSPRTFGGGTKVEIKRTVAAPSVFIFPPSDEQLKSGTASVVCLLNNFYPREAKVQWKVDNALQSGNSQESVTEQDSKDSTYSLSSTLTLSKADYEKHKVYACEVTHQGLSSPVTKSFNRGEC
notes: Murine 10A8 variable domains on human IgG1 and kappa constant domains; also called ch10A8; chMAFcRH5 (10A8)
In experiment [6], B4 yielded a Kd of 0.98 nM.

B5: cysteine engineered chimeric anti-FcRH5 10A8, heavy chain A118C (antibody, human IgG1, kappa, name in EU numbering)
heavy: not shown
light: DIVMTQSHKFMSTSVRDRVSITCKASQDVSTAVAWYQQKPGQSPKLLIYSASYRYTGVPDRFTGSGSGTDFTFTISSVQAEDLAVYYCQQHFSSPRTFGGGTKVEIKRTVAAPSVFIFPPSDEQLKSGTASVVCLLNNFYPREAKVQWKVDNALQSGNSQESVTEQDSKDSTYSLSSTLTLSKADYEKHKVYACEVTHQGLSSPVTKSFNRGEC
notes: It is built here from the ch10A8 chains plus the stated A118C change; also called thio-ch10A8.HC; thio-ch10A8-HC(A118C)
As to B5, the Kd in experiment [7] turned out to be 1.57 nM; in experiment [8] it was 0.85 nM.

B6: humanized anti-FcRH5 antibody 10A8 version 1 (antibody, human IgG1, V domains shown)
VH: EVQLVESGGGLVQPGGSLRLSCAASGFTFSSYAVSWVRQAPGKGLEWVATISSGGSLTFYLDSVRGRFTISRDNSKNTLYLQMNSLRAEDTAVYYCARPIPDYYALDYWGQGTLVTVSS
VL: DIQMTQSPSSLSASVGDRVTITCKASQDVSTAVAWYQQKPGKAPKLLIYSASYRYTGVPSRFSGSGSGTDFTLTISSLQPEDFATYYCQQHFSSPRTFGQGTKVEIKR
notes: Full-length human IgG1 with a human kappa constant domain; also called hu10A8 v1; hu10A8
For B6, the Kd in experiment [9] was determined as 1.44 nM; in experiment [10], 3.04 nM.

A word on the Kd: it is the equilibrium constant for the complex coming apart. A low value points to a tighter complex.

These data come from patent US20130089555A1 (Genentech, published 2013).
